The values that follow come from US20040082509A1.

For the test, the target named is JNKs. Kind of test: cell-based or functional assay.

The molecule GRKKRRQRRRPPDTYRPKRPTTLNLFPQVPRSQDT [L-TAT-IB1 peptide] had a phosphorylation of GST-jun (1-89) by JNKs pulled down from UV-irradiated HeLa or IL-1β treated βTC-3 cell extracts; peptide at 25 µM of 25 µM.
GRKKRRQRRRPPEEPHKHRPTTLRLTTLGAQDS [L-TAT-IB2 peptide] had a phosphorylation of GST-jun (1-89) by JNKs pulled down from UV-irradiated HeLa or IL-1β treated βTC-3 cell extracts; peptide at 25 µM of 25 µM.
